Reference: patent US20150344570A1 (published 2015)

B1: GpH7-A5/GpH7-B3 variant E269_01G/GpL16-k0 (He Ab) (antibody, human IgG1, kappa)
heavy 1: not shown
heavy 2: not shown
light: DIVMTQSPLSLPVTPGEPASISCQASESLVHSNRNTYLHWYLQKPGQSPQLLIYKVSNRFSGVPDRFSGSGSGTDFTLKISRVEAEDVGVYYCSQNTHVPPTFGQGTKVEIERTVAAPSVFIFPPSDEQLKSGTASVVCLLNNFYPREAKVQWKVDNALQSGNSQESVTEQDSKDSTYSLSSTLTLSKADYEKHKVYACEVTHQGLSSPVTKSFNRGEC
notes: He Ab: mutation in one H chain only
B2: GpH7-A5/GpH7-B3 variant G236_20W/GpL16-k0 (He Ab) (antibody, human IgG1, kappa)
heavy 1: not shown
heavy 2: not shown
light: B1 light
notes: as for B1
B3: GpH7-A5/GpH7-B3 variant E269_04F/GpL16-k0 (He Ab) (antibody, human IgG1, kappa)
heavy 1: not shown
heavy 2: not shown
light: B1 light
notes: as for B1
B4: GpH7-A5/GpH7-B3 variant G236_02A/GpL16-k0 (He Ab) (antibody, human IgG1, kappa)
heavy 1: not shown
heavy 2: not shown
light: B1 light
notes: as for B1
B5: GpH7-A5/GpH7-B3 variant E269_14T/GpL16-k0 (He Ab) (antibody, human IgG1, kappa)
heavy 1: not shown
heavy 2: not shown
light: B1 light
notes: as for B1
B6: GpH7-A5/GpH7-B3 variant E269_13S/GpL16-k0 (He Ab) (antibody, human IgG1, kappa)
heavy 1: not shown
heavy 2: not shown
light: B1 light
notes: as for B1
B7: GpH7-A5/GpH7-B3 variant D265_10E/GpL16-k0 (He Ab) (antibody, human IgG1, kappa)
heavy 1: not shown
heavy 2: not shown
light: B1 light
notes: as for B1
B8: GpH7-A5/GpH7-B3 variant E269_16H/GpL16-k0 (He Ab) (antibody, human IgG1, kappa)
heavy 1: not shown
heavy 2: not shown
light: B1 light
notes: as for B1
B9: GpH7-A5/GpH7-B3 variant H268_12R/GpL16-k0 (He Ab) (antibody, human IgG1, kappa)
heavy 1: not shown
heavy 2: not shown
light: B1 light
notes: as for B1
B10: GpH7-A5/GpH7-B3 variant E269_02A/GpL16-k0 (He Ab) (antibody, human IgG1, kappa)
heavy 1: not shown
heavy 2: not shown
light: B1 light
notes: as for B1
B11: GpH7-A5/GpH7-B3 variant E269_18N/GpL16-k0 (He Ab) (antibody, human IgG1, kappa)
heavy 1: not shown
heavy 2: not shown
light: B1 light
notes: as for B1
B12: GpH7-A5/GpH7-B3 variant H268_07I/GpL16-k0 (He Ab) (antibody, human IgG1, kappa)
heavy 1: not shown
heavy 2: not shown
light: B1 light
notes: as for B1
B13: GpH7-A5/GpH7-B3 variant E269_07I/GpL16-k0 (He Ab) (antibody, human IgG1, kappa)
heavy 1: not shown
heavy 2: not shown
light: B1 light
notes: as for B1
B14: GpH7-A5/GpH7-B3 variant H268_06M/GpL16-k0 (He Ab) (antibody, human IgG1, kappa)
heavy 1: not shown
heavy 2: not shown
light: B1 light
notes: as for B1
B15: GpH7-A5/GpH7-B3 variant E269_05P/GpL16-k0 (He Ab) (antibody, human IgG1, kappa)
heavy 1: not shown
heavy 2: not shown
light: B1 light
notes: as for B1
B16: GpH7-A5/GpH7-B3 variant H268_04F/GpL16-k0 (He Ab) (antibody, human IgG1, kappa)
heavy 1: not shown
heavy 2: not shown
light: B1 light
notes: as for B1
B17: GpH7-A5/GpH7-B3 variant E269_03V/GpL16-k0 (He Ab) (antibody, human IgG1, kappa)
heavy 1: not shown
heavy 2: not shown
light: B1 light
notes: as for B1
B18: GpH7-A5/GpH7-B3 variant E269_20W/GpL16-k0 (He Ab) (antibody, human IgG1, kappa)
heavy 1: not shown
heavy 2: not shown
light: B1 light
notes: as for B1
B19: GpH7-A5/GpH7-B3 variant E269_06M/GpL16-k0 (He Ab) (antibody, human IgG1, kappa)
heavy 1: not shown
heavy 2: not shown
light: B1 light
notes: as for B1
B20: GpH7-A5/GpH7-B3 variant H268_08L/GpL16-k0 (He Ab) (antibody, human IgG1, kappa)
heavy 1: not shown
heavy 2: not shown
light: B1 light
notes: as for B1
B21: GpH7-A5/GpH7-B3 variant E269_15Y/GpL16-k0 (He Ab) (antibody, human IgG1, kappa)
heavy 1: not shown
heavy 2: not shown
light: B1 light
notes: as for B1
B22: GpH7-A5/GpH7-B3 variant H268_11K/GpL16-k0 (He Ab) (antibody, human IgG1, kappa)
heavy 1: not shown
heavy 2: not shown
light: B1 light
notes: as for B1
B23: GpH7-A5/GpH7-B3 variant E269_19Q/GpL16-k0 (He Ab) (antibody, human IgG1, kappa)
heavy 1: not shown
heavy 2: not shown
light: B1 light
notes: as for B1
B24: GpH7-A5/GpH7-B3 variant E269_08L/GpL16-k0 (He Ab) (antibody, human IgG1, kappa)
heavy 1: not shown
heavy 2: not shown
light: B1 light
notes: as for B1
B25: GpH7-A5/GpH7-B3 variant T335_10E/GpL16-k0 (antibody, human IgG1, kappa)
heavy 1: not shown
heavy 2: not shown
light: B1 light
notes: also called He Ab T335_10E
B26: GpH7-A5/GpH7-B3 variant T335_04F/GpL16-k0 (antibody, human IgG1, kappa)
heavy 1: not shown
heavy 2: not shown
light: B1 light
notes: also called He Ab T335_04F
B27: GpH7-A5/GpH7-B3 variant S337_15Y/GpL16-k0 (antibody, human IgG1, kappa)
heavy 1: not shown
heavy 2: not shown
light: B1 light
notes: also called He Ab S337_15Y
B28: GpH7-A5/GpH7-B3 variant S337_19Q/GpL16-k0 (antibody, human IgG1, kappa)
heavy 1: not shown
heavy 2: not shown
light: B1 light
notes: also called He Ab S337_19Q
B29: GpH7-A5/GpH7-B3 variant T335_12R/GpL16-k0 (antibody, human IgG1, kappa)
heavy 1: not shown
heavy 2: not shown
light: B1 light
notes: also called He Ab T335_12R
B30: GpH7-A5/GpH7-B3 variant T335_07I/GpL16-k0 (antibody, human IgG1, kappa)
heavy 1: not shown
heavy 2: not shown
light: B1 light
notes: also called He Ab T335_07I
B31: GpH7-A5/GpH7-B3 variant T335_05P/GpL16-k0 (antibody, human IgG1, kappa)
heavy 1: not shown
heavy 2: not shown
light: B1 light
notes: also called He Ab T335_05P
B32: GpH7-A5/GpH7-B3 variant V266_19Q/GpL16-k0 (antibody, human IgG1, kappa)
heavy 1: not shown
heavy 2: not shown
light: B1 light
notes: also called He Ab V266_19Q
B33: GpH7-A5/GpH7-B3 variant T335_06M/GpL16-k0 (antibody, human IgG1, kappa)
heavy 1: not shown
heavy 2: not shown
light: B1 light
notes: also called He Ab T335_06M
B34: GpH7-A5/GpH7-B3 variant T335_08L/GpL16-k0 (antibody, human IgG1, kappa)
heavy 1: not shown
heavy 2: not shown
light: B1 light
notes: also called He Ab T335_08L
B35: GpH7-A5/GpH7-B3 variant S337_12R/GpL16-k0 (antibody, human IgG1, kappa)
heavy 1: not shown
heavy 2: not shown
light: B1 light
notes: also called He Ab S337_12R
B36: GpH7-A5/GpH7-B3 variant T335_09D/GpL16-k0 (antibody, human IgG1, kappa)
heavy 1: not shown
heavy 2: not shown
light: B1 light
notes: also called He Ab T335_09D
B37: GpH7-A5/GpH7-B3 variant T335_15Y/GpL16-k0 (antibody, human IgG1, kappa)
heavy 1: not shown
heavy 2: not shown
light: B1 light
notes: also called He Ab T335_15Y
B38: GpH7-A5/GpH7-B3 variant Y300_12R/GpL16-k0 (antibody, human IgG1, kappa)
heavy 1: not shown
heavy 2: not shown
light: B1 light
notes: also called He Ab Y300_12R
B39: GpH7-A5/GpH7-B3 variant S337_20W/GpL16-k0 (antibody, human IgG1, kappa)
heavy 1: not shown
heavy 2: not shown
light: B1 light
notes: also called He Ab S337_20W
B40: GpH7-A5/GpH7-B3 variant T335_11K/GpL16-k0 (antibody, human IgG1, kappa)
heavy 1: not shown
heavy 2: not shown
light: B1 light
notes: also called He Ab T335_11K
B41: GpH7-A5/GpH7-B3 variant V266_20W/GpL16-k0 (antibody, human IgG1, kappa)
heavy 1: not shown
heavy 2: not shown
light: B1 light
notes: mutation in the GpH7-B3 chain only; also called He Ab
B42: GpH7-A5/GpH7-B3 variant D265_19Q/GpL16-k0 (antibody, human IgG1, kappa)
heavy 1: not shown
heavy 2: not shown
light: B1 light
notes: as for B41
B43: GpH7-A5/GpH7-B3 variant D265_02A/GpL16-k0 (antibody, human IgG1, kappa)
heavy 1: not shown
heavy 2: not shown
light: B1 light
notes: as for B41

Molecular target: T1, FcγRIa extracellular domain with C-terminal His tag (human, UniProt P12314 16-292)
T1 construct: extracellular domain; Expressed in FreeStyle293 cells; analyte in the SPR assay; also called FcgRI; 1a
Assay: SPR (Biacore), relative binding, HeCon Ab = 100

T1 sequence (P12314 16-292): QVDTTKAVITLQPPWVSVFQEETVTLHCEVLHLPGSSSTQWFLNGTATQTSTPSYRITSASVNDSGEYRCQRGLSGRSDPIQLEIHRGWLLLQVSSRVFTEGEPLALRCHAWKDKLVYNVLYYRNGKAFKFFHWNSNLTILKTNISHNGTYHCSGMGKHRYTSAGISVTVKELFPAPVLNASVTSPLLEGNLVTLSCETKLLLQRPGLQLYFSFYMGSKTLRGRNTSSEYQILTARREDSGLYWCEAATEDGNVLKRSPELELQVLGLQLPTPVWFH

Binder	He/Con_1a
B1	104 % of HeCon Ab (=100)
B2	105 % of HeCon Ab (=100)
B3	103 % of HeCon Ab (=100)
B4	100 % of HeCon Ab (=100)
B5	106 % of HeCon Ab (=100)
B6	103 % of HeCon Ab (=100)
B7	101 % of HeCon Ab (=100)
B8	106 % of HeCon Ab (=100)
B9	106 % of HeCon Ab (=100)
B10	104 % of HeCon Ab (=100)
B11	102 % of HeCon Ab (=100)
B12	108 % of HeCon Ab (=100)
B13	103 % of HeCon Ab (=100)
B14	105 % of HeCon Ab (=100)
B15	102 % of HeCon Ab (=100)
B16	106 % of HeCon Ab (=100)
B17	103 % of HeCon Ab (=100)
B18	105 % of HeCon Ab (=100)
B19	104 % of HeCon Ab (=100)
B20	107 % of HeCon Ab (=100)
B21	106 % of HeCon Ab (=100)
B22	106 % of HeCon Ab (=100)
B23	105 % of HeCon Ab (=100)
B24	104 % of HeCon Ab (=100)

Molecular target: T2, FcγRIIb extracellular domain with C-terminal His tag (human, UniProt P31994 43-217)
T2 construct: extracellular domain; Expressed in FreeStyle293 cells; analyte in the SPR assay; also called FcgRIIb; 2b
T2 sequence (looked up): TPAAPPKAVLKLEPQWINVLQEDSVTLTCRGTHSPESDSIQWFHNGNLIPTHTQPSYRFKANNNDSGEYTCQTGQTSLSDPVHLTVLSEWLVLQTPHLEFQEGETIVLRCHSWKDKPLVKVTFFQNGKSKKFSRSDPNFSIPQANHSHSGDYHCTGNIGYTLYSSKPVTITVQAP
Assay: SPR (Biacore), relative binding, HeCon Ab = 100

Binder	He/Con_2b
B1	51.5 % of HeCon Ab (=100)
B2	58.2 % of HeCon Ab (=100)
B3	45 % of HeCon Ab (=100)
B4	96.5 % of HeCon Ab (=100)
B5	50.6 % of HeCon Ab (=100)
B6	47.8 % of HeCon Ab (=100)
B7	38.2 % of HeCon Ab (=100)
B8	38.5 % of HeCon Ab (=100)
B9	89.8 % of HeCon Ab (=100)
B10	49.9 % of HeCon Ab (=100)
B11	44.8 % of HeCon Ab (=100)
B12	88.9 % of HeCon Ab (=100)
B13	43.9 % of HeCon Ab (=100)
B14	65.7 % of HeCon Ab (=100)
B15	52.6 % of HeCon Ab (=100)
B16	89.6 % of HeCon Ab (=100)
B17	45.1 % of HeCon Ab (=100)
B18	42.5 % of HeCon Ab (=100)
B19	46.7 % of HeCon Ab (=100)
B20	67.8 % of HeCon Ab (=100)
B21	44.7 % of HeCon Ab (=100)
B22	83 % of HeCon Ab (=100)
B23	44.3 % of HeCon Ab (=100)
B24	42.9 % of HeCon Ab (=100)

Molecular target: T3, FcγRIa (human, UniProt P12314 16-292)
T3 construct: extracellular domain; Soluble extracellular domain expressed in FreeStyle293 cells, used as analyte in Biacore; also called FcgRI; 1a; not shown: His tag attached to the C terminus
Assay: SPR (Biacore); He Ab vs HeCon Ab GpH7-A5/GpH7-B3/GpL16-k0
Procedure: Analysis of interaction between objective antibody and the FcγR was carried out using Biacore T100 (GE Healthcare). HBS-EP+ (GE Healthcare) was used as the running buffer, and the measurement temperature was set to 25° C. Chips produced by immobilizing the antigen peptide by the amine coupling method to a Series S Sencor Chip CM5 (GE Healthcare), or alternatively, chips produced by allowing preliminarily biotinylated antigen peptides to interact with and immobilize onto a Series S Sensor Chip SA (certified) (GE Healthcare) were used. Antibodies of interest were captured onto an antigen peptide-immobilized chip, and allowed to interact to each FcγR diluted with running buffer. To regenerate and repeatedly use the chip, the antibodies captured on the chip were washed off by reacting 10 mM glycine-HCl, pH 1.5.

T3 sequence (P12314 16-292): as the sequence (P12314 16-292) above

Binder	He/Con_1a
B25	109 relative binding, control = 100
B26	105 relative binding, control = 100
B27	104 relative binding, control = 100
B28	105 relative binding, control = 100
B29	113 relative binding, control = 100
B30	109 relative binding, control = 100
B31	106 relative binding, control = 100
B32	100 relative binding, control = 100
B33	107 relative binding, control = 100
B34	115 relative binding, control = 100
B35	106 relative binding, control = 100
B36	108 relative binding, control = 100
B37	107 relative binding, control = 100
B38	105 relative binding, control = 100
B39	105 relative binding, control = 100
B40	111 relative binding, control = 100

Molecular target: T4, FcγRIIb (human, UniProt P31994 43-217)
T4 construct: extracellular domain; also called FcgRIIb; 2b
T4 sequence (looked up): T2 sequence (looked up)
Assay: SPR (Biacore), relative binding

Binder	He/Con_2b
B41	71.9 % of GpH7-A5/GpH7-B3/GpL16-k0
B42	33.4 % of GpH7-A5/GpH7-B3/GpL16-k0
B43	19.9 % of GpH7-A5/GpH7-B3/GpL16-k0
